{"source": "patent US20100180464A1", "about": "“Cores and microcapsules suitable for parenteral administration as well as process for their manufacture” (STRATOSPHERE PHARMA AB, priority 2007, published 2010)", "type_in_all_cases": "physicochemical", "key": {"[1]": {"experiment": "Western blotting for dimer content", "procedure": "(§1) Cores suitable for air suspension coating and containing either human growth hormone (hGH) or erythropoietin (EPO) were prepared by essentially according to Example 1 using carbon dioxide for atomisation but with ethanol or ethanol containing solid carbon dioxide as the cold medium. For hGH the composition contained sodium hyaluronate (1%, about 4.1 g), diluent particles (rice starch, Sigma 57260, 1.83 g) and hGH (217 mg) and for EPO sodium hyaluronate (about 3.4), diluent particles (about 1.48 g) and EPO (11 mg). There was substantial stirring in the cold medium in the presence of solid carbon dioxide and little, if any, backflow of gas. The cold medium was removed by filtration and the cores dried using air at room temperature and atmospheric pressure. Cores suitable for air suspension coating were formed containing hGH (624 mg) and EPO (468 mg). […] No increase in the content of dimer or polymer forms of hGH were observed by HPLC size exclusion chromatography (SEC-HPLC, TSK2000 SWx1, Tosoh Corporation) according to Reslow et al (Sustained release of human growth hormone (hGH) from PLG-coated starch microspheres. Drug Delivery Systems and Sciences, 2002, 2,1 103-109)."}, "[2]": {"experiment": "Electrophoresis (SDS-PAGE 12 and 18%) with silver staining of proteins after encapsulation in cores", "conditions": "cores with sodium hyaluronate and rice starch diluent particles; carbon dioxide atomisation; cold medium ethanol or ethanol containing solid carbon dioxide; dried with air at room temperature", "procedure": "as §1"}, "[3]": {"experiment": "HPLC size exclusion chromatography (SEC-HPLC, TSK2000 SWx1) for dimer or polymer forms", "conditions": "cores prepared per Example 10", "procedure": "as §1"}}}
{"substance": "erythropoietin [EPO]", "values": [{"measurement": "increase in dimer content", "setting": "[1]; absence of carbon dioxide in the cold medium (ethanol)", "result": "clearly higher increase"}, {"measurement": "increase in dimer content", "setting": "[1]; carbon dioxide present in the cold medium (ethanol)", "result": "slight increase"}, {"measurement": "degradation products detected by electrophoresis", "setting": "[2]", "result": "No degradation products"}]}
{"substance": "human growth hormone [hGH]", "values": [{"measurement": "increase in the content of dimer or polymer forms", "setting": "[3]", "result": "No increase"}, {"measurement": "degradation products detected by electrophoresis", "setting": "[2]", "result": "No degradation products"}]}
